In patent US20240132578A1 one finds IC50 (µg/mL), neutralization of pseudovirus, IC50 (µg/mL), pseudovirus neutralization and Fold IC50 increase relative to wild-type data, which are given here for two molecules.

Assay in all cases: cell-based or functional assay
In experiment [1] the target is HIV-1 Env of isolate MGRM-G-016 (subtype G), on pseudovirus (HIV-1).
The target in experiment [2] is HIV-1 Env of isolate MGRM-G-009 (subtype G), on pseudovirus (HIV-1).
The target of experiment [3] is HIV-1 Env of isolate MGRM-G-017 (subtype G), on pseudovirus (HIV-1).
For experiment [4], the target named is HIV-1 Env of isolate MGRM-G-027 (subtype G), on pseudovirus (HIV-1).
Experiment [5] deals with HIV-1 Env of isolate MGRM-G-001 (subtype G), on pseudovirus (HIV-1).
Experiment [6] has as its target HIV-1 Env of isolate 92BR020 (subtype B) (HIV-1).
Experiment [7] addresses HIV-1 Env of isolate 93TH305 (subtype B) (HIV-1).
Experiment [8] has as its target HIV-1 Env of isolate MGRM-G-028 (subtype G), on pseudovirus (HIV-1).
Experiment [9] has as its target HIV-1 Env of isolate APV 13 (subtype B) (HIV-1).
The target of experiment [10] is HIV-1 Env of isolate 6535.3 (subtype B) (HIV-1).
The target of experiment [11] is HIV-1 Env of isolate MGRM-G-004 (subtype G), on pseudovirus (HIV-1).
The target of experiment [12] is aMLV envelope, on pseudovirus (negative control).
The target of experiment [13] is HIV-1 Env of isolate MGRM-G-013 (subtype G), on pseudovirus (HIV-1).
In experiment [14] the target is HIV-1 Env of isolate MGRM-G-011 (subtype G), on pseudovirus (HIV-1).
For experiment [15], the target named is HIV-1 Env of isolate MGRM-G-015 (subtype G), on pseudovirus (HIV-1).
The target in experiment [16] is HIV-1 Env of isolate MGRM-G-014 (subtype G), on pseudovirus (HIV-1).
For experiment [17], the target named is HIV-1 Env of isolate APV_17 (subtype B) (HIV-1).
Experiment [18] deals with HIV-1 Env of isolate MGRM-G-024 (subtype G), on pseudovirus (HIV-1).
The target of experiment [19] is HIV-1 Env of isolate APV 6 (subtype B) (HIV-1).
Experiment [20] addresses HIV-1 JR-CSF Env G471A (HIV-1 JR-CSF) (UniProt P20871).
For experiment [21], the target named is HIV-1 Env of isolate MGRM-G-025 (subtype G), on pseudovirus (HIV-1).
Experiment [22] addresses HIV-1 Env of isolate MGRM-G-019 (subtype G), on pseudovirus (HIV-1).
In experiment [23] the target is HIV-1 Env of isolate MGRM-G-006 (subtype G), on pseudovirus (HIV-1).
The target in experiment [24] is HIV-1 JR-CSF Env D474A (HIV-1 JR-CSF) (UniProt P20871).

B1: PGT-135 (antibody, V domains shown)
VH: QLQMQESGPGLVKPSETLSLSCTVSGDSIRGGEWGDKDYHWGWVRHSAGKGLEWIGSIHWRGTTHYKESLRRRVSMSIDTSRNWFSLRLASVTAADTAVYFCARHRHHDVFMLVPIAGWFDVWGPGVQVTVSS
VL: EIVMTQSPDTLSVSPGETVTLSCRASQNINKNLAWYQYKPGQSPRLVIFETYSKIAAFPARFVASGSGTEFTLTINNMQSEDVAVYYCQQYEEWPRTFGQGTKVDIK
As for B1, the IC50 (µg/mL), neutralization of pseudovirus in experiment [1] is > 50 µg/mL; in experiment [2], > 50 µg/mL; in experiment [3], 0.137 µg/mL; in [4], 0.062 µg/mL; in experiment [5], 0.393 µg/mL; in experiment [8] it was > 50 µg/mL. Moreover, the IC50 (µg/mL), neutralization of pseudovirus in experiment [11], in experiment [12], in experiment [13], in experiment [14], in experiment [15] and in experiment [16] was > 50 µg/mL in each case. The IC50 (µg/mL), neutralization of pseudovirus in experiment [18] is 0.062 µg/mL; in experiment [21] it was 0.592 µg/mL; in [22] it was 0.145 µg/mL; in experiment [23], > 50 µg/mL. For the same molecule, the IC50 (µg/mL), pseudovirus neutralization in experiment [6] was 0.073 µg/mL; in [7] it was > 50 µg/mL; in experiment [9], 0.716 µg/mL; in experiment [10], > 50 µg/mL; in experiment [17], > 50 µg/mL; in [19], > 50 µg/mL. In addition, the Fold IC50 increase relative to wild-type in experiment [20] came out at 3 fold.

B2: PGT-130 (antibody, V domains shown)
VH: QVQLQESGPGLVKPAETLSLTCSVSGESINTGHYYWGWVRQVPGKGLEWIGHIHYTTAVLHNPSLKSRLTIKIYTLRNQITLRLSNVTAADTAVYHCVRSGGDILYYYEWQKPHWFSPWGPGIHVTVSS
VL: QSALTQPPSASGSLGQSVTISCNGTSSDIGGWNFVSWYQQFPGRAPRLIIFEVNKRPSGVPGRFSGSKSGNSASLTVSGLQSDDEGQYFCSSLFGRWDVVFGGGTKLTVL
In the case of B2, the IC50 (µg/mL), neutralization of pseudovirus was > 50 µg/mL in [1]; > 50 µg/mL in experiment [2]; > 50 µg/mL in experiment [3]; 4.14 µg/mL in experiment [4]; 0.0198 µg/mL in experiment [5]; 0.074 µg/mL in [8]. In addition, the IC50 (µg/mL), neutralization of pseudovirus was > 50 µg/mL in experiment [11]; > 50 µg/mL in experiment [12]; > 50 µg/mL in experiment [13]; > 50 µg/mL in experiment [14]; > 50 µg/mL in experiment [15]; 2.23 µg/mL in experiment [16]. Besides, the IC50 (µg/mL), neutralization of pseudovirus in [18] is 5.84 µg/mL; in [21], 8.45 µg/mL; in experiment [22], 27.9 µg/mL; in experiment [23], > 50 µg/mL. Moreover, the IC50 (µg/mL), pseudovirus neutralization in experiment [6] was 1.4 µg/mL; in [7], 0.021 µg/mL; in experiment [9] it was 0.052 µg/mL; in experiment [10], 0.031 µg/mL; in experiment [17], 10.7 µg/mL; in experiment [19], > 50 µg/mL. This molecule also came in with a Fold IC50 increase relative to wild-type in [24] of 2 fold.
